The labels stand for the following.
B1: His-VHH-H5-c-Myc (VHH)
VHH: QVQLQESGGGSVQAGGSLRLSCAASGSTVRRRCMGWFRQAPGKEREEVAIVDNEGIEQYADFVKGRFTISRDNAKNTLYLQMNSLKPEDTAMYYCAMAPGYTPTGCLVYNTWGQGTQVTVSS
notes: Bactrian camel VHH expressed from pET22b in BL21(DE3); not shown: His tag, named only in the construct name; c-Myc tag, named only in the construct name
B2: His-VHH-B7-c-Myc (VHH)
VHH: QVQLQESGGGSVQAGGSLRLSCVASQYTYNTVGWFRQAPGKEREGVAGIYNGGDQTYYSESAKGRFTISQDNAKRTVYLQMNSLKPEDTAMYYCAAGRLIVSGRWSMTKEEYQYWGQGTQVTVSS
notes: as for B1
B3: His-VHH-H12-c-Myc (VHH)
VHH: QVQLQESGGGSVQAGGSLRLSCAVSGGTTRRRCMGWFRQAPGKEREEVASYDNQGIIKYADFVKGRFTISRDNAKNTLYLQMNTLKPEDTAMYYCAMAPGYDNRGCLVYNTWGQGTQVTVSS
notes: as for B1

The target in the experiment is PD-1蛋白 (程序性死亡受体-1). The experiment can be described thus: non-competitive ELISA, PD-1 coated at 2, 1, 0.5 and 0.25 μg/ml, KA=(n-1)/(nAb'-Ab).
Chain of PD-1蛋白 (程序性死亡受体-1) (chain, as listed by the source): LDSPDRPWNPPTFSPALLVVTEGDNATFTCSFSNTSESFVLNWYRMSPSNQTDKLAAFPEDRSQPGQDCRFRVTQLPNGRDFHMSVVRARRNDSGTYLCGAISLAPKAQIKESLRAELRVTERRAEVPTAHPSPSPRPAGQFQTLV
Regarding B1, the Ka was 2.62e+11 M⁻¹. The molecule B2 showed a Ka of 2.31e+11 M⁻¹. Molecule B3 gave a Ka of 4.79e+11 M⁻¹.

The values above are taken from patent publication CN108285485A (WULUMUQI HENGKANG ZHIYUAN BIOTECHNOLOGY CO LTD, dated 2018).
